Substitutions are numbered along the chain they refer to.
B1: vS07_19G10 (designed binder)
chain: MRGSHHHHHHGSDLGNKLLDAAWVGQDDEVRILLAAGADVNAKDWQGETPLHLAATKGHLEIVEVLLKAGADVNAKDVVGYTPLHVAASQGHLEIVEVLLKAGADVNAQDVHGYTPADLAAQAGHEDIAEVLQKAA
notes: also called R2a
B2: vS07_23E04 (designed binder)
chain: MRGSHHHHHHGSDLGKKLLQAARAGQLDEVRELLKAGADVNAKDQEGITPLHVAAHQGHLEIVEVLLKAGADVNAKDVWGRTPLHLAAWRGHLEIVEVLLKAGADVNAKDHAGATPLHAAALSGHLEIVEVLLKAGADVNAQDKSGKTPADLAARAGHQDIAEVLQKAA
notes: also called R3c
B3: vS07_29B10 (designed binder)
chain: B2 chain with Q45R, V53L, H56Q, Q57H, R90Q, H111L, A119V, S123Y
notes: also called R3b
B4: vS07_12C06 (designed binder)
chain: B2 chain with Q45R, I48K, H56Q, Q57E, R90I, H111V, A112S, S123H, K134N
notes: also called R1b; Rb1
B5: vS07_14G03 (designed binder)
chain: MRGSHHHHHHGSDLGQKLLHAAQYGQDDEVRILLAAGADVNAKDKQGNTPLHIAAFHGHLEIVEVLLKAGADVNAKDQWGLTPLHLAAAWGHLEIVEVLLKAGADVNAQDNYGQTPADLAAESGHEDIAEVLQKAA
notes: also called S2a
B6: ALE033 (designed binder)
chain: MRGSHHHHHHGSDLGKKLLEAARAGQDDEVRELLKAGADVNAKDYFSHTPLHLAARNGHLKIVEVLLKAGADVNAKDFAGKTPLHLAANEGHLEIVEVLLKAGADVNAQDIFGKTPADIAADAGHEDIAEVLQKAAGSPTPTPTTPTPTPTTPTPTPTGSDLGKKLLEAARAGQDDEVRELLKAGADVNAKDYFSHTPLHLAARNGHLKIVEVLLKAGADVNAKDFAGKTPLHLAANEGHLEIVEVLLKAGADVNAQDIFGKTPADIAADAGHEDIAEVLQKAAGSPTPTPTTPTPTPTTPTPTPTGSDLGKKLLQAARAGQLDEVRELLKAGADVNAKDREGITPLHLAAQHGHLEIVEVLLKAGADVNAKDVWGRTPLHLAAWQGHLEIVEVLLKAGADVNAKDLAGATPLHVAALYGHLEIVEVLLKAGADVNAQDKSGKTPADLAARAGHQDIAEVLQKAAGSPTPTPTTPTPTPTTPTPTPTGSDLGKKLLQAARAGQLDEVRELLKAGADVNAKDREGKTPLHVAAQEGHLEIVEVLLKAGADVNAKDVWGRTPLHLAAWIGHLEIVEVLLKAGADVNAKDVSGATPLHAAALHGHLEIVEVLLNAGADVNAQDKSGKTPADLAARAGHQDIAEVLQKAAGSPTPTPTTPTPTPTTPTPTPTGSDLGKKLLQAARAGQLDEVRELLKAGADVNAKDREGITPLHLAAQHGHLEIVEVLLKAGADVNAKDVWGRTPLHLAAWQGHLEIVEVLLKAGADVNAKDLAGATPLHVAALYGHLEIVEVLLKAGADVNAQDKSGKTPADLAARAGHQDIAEVLQKAA
B7: ALE030 (designed binder)
chain: MRGSHHHHHHGSDLGKKLLEAARAGQDDEVRELLKAGADVNAKDYFSHTPLHLAARNGHLKIVEVLLKAGADVNAKDFAGKTPLHLAANEGHLEIVEVLLKAGADVNAQDIFGKTPADIAADAGHEDIAEVLQKAAGSPTPTPTTPTPTPTTPTPTPTGSDLGKKLLEAARAGQDDEVRELLKAGADVNAKDYFSHTPLHLAARNGHLKIVEVLLKAGADVNAKDFAGKTPLHLAANEGHLEIVEVLLKAGADVNAQDIFGKTPADIAADAGHEDIAEVLQKAAGSPTPTPTTPTPTPTTPTPTPTGSDLGKKLLQAARAGQLDEVRELLKAGADVNAKDREGITPLHLAAQHGHLEIVEVLLKAGADVNAKDVWGRTPLHLAAWQGHLEIVEVLLKAGADVNAKDLAGATPLHVAALYGHLEIVEVLLKAGADVNAQDKSGKTPADLAARAGHQDIAEVLQKAAGSPTPTPTTPTPTPTTPTPTPTGSDLGNKLLDAAWVGQDDEVRILLAAGADVNAKDWQGETPLHLAATKGHLEIVEVLLKAGADVNAKDVVGYTPLHVAASQGHLEIVEVLLKAGADVNAQDVHGYTPADLAAQAGHEDIAEVLQKAAGSPTPTPTTPTPTPTTPTPTPTGSDLGKKLLQAARAGQLDEVRELLKAGADVNAKDREGKTPLHVAAQEGHLEIVEVLLKAGADVNAKDVWGRTPLHLAAWIGHLEIVEVLLKAGADVNAKDVSGATPLHAAALHGHLEIVEVLLNAGADVNAQDKSGKTPADLAARAGHQDIAEVLQKAA
B8: ALE038 (designed binder)
chain: MRGSHHHHHHGSDLGKKLLEAARAGQDDEVRELLKAGADVNAKDYFSHTPLHLAARNGHLKIVEVLLKAGADVNAKDFAGKTPLHLAANEGHLEIVEVLLKAGADVNAQDIFGKTPADIAADAGHEDIAEVLQKAAGSPTPTPTTPTPTPTTPTPTPTGSDLGKKLLEAARAGQDDEVRELLKAGADVNAKDYFSHTPLHLAARNGHLKIVEVLLKAGADVNAKDFAGKTPLHLAANEGHLEIVEVLLKAGADVNAQDIFGKTPADIAADAGHEDIAEVLQKAAGSPTPTPTTPTPTPTTPTPTPTGSDLGKKLLQAARAGQLDEVRELLKAGADVNAKDREGKTPLHVAAQEGHLEIVEVLLKAGADVNAKDVWGRTPLHLAAWIGHLEIVEVLLKAGADVNAKDVSGATPLHAAALHGHLEIVEVLLNAGADVNAQDKSGKTPADLAARAGHQDIAEVLQKAAGSPTPTPTTPTPTPTTPTPTPTGSDLGKKLLQAARAGQLDEVRELLKAGADVNAKDREGITPLHLAAQHGHLEIVEVLLKAGADVNAKDVWGRTPLHLAAWQGHLEIVEVLLKAGADVNAKDLAGATPLHVAALYGHLEIVEVLLKAGADVNAQDKSGKTPADLAARAGHQDIAEVLQKAAGSPTPTPTTPTPTPTTPTPTPTGSDLGHKLLLAAQAGQDDEVRILLAAGADVNAKDVFGQTPLHVAAVAGHLEIVEVLLKAGADVNAKDSIGYTPLHHAARVGHLEIVEVLLKAGADVNAQDWIGITPADLAAFEGHEDIAEVLQKAA

Columns and labels:
Test in all cases: cell-based or functional assay
[1] = target: spike protein of live SARS-CoV-2 (2019-nCoV/IDF0372/2020) (SARS-CoV-2, UniProt P0DTC2 14-1273)
[2] = target: SARS-CoV-2 spike protein variant B.1.351 (SARS-CoV-2, UniProt P0DTC2 14-1273)
[3] = target: SARS-CoV-2 spike protein N501Y (SARS-CoV-2, UniProt P0DTC2 14-1273)
[4] = target: SARS-CoV-2 spike protein Y453F (SARS-CoV-2, UniProt P0DTC2 14-1273)
[5] = target: T1, SARS-CoV-2 spike protein, wild type (Wuhan) (SARS-CoV-2, UniProt P0DTC2 14-1273)
[6] = target: SARS-CoV-2 spike protein S477N (SARS-CoV-2, UniProt P0DTC2 14-1273)
[7] = target: SARS-CoV-2 spike protein D614G (SARS-CoV-2, UniProt P0DTC2 14-1273)
[8] = target: SARS-CoV-2 spike protein V483A (SARS-CoV-2, UniProt P0DTC2 14-1273)
[9] = target: SARS-CoV-2 spike protein N439K (SARS-CoV-2, UniProt P0DTC2 14-1273)
[10] = target: SARS-CoV-2 spike protein F490S (SARS-CoV-2, UniProt P0DTC2 14-1273)
[11] = target: SARS-CoV-2 spike protein T478I (SARS-CoV-2, UniProt P0DTC2 14-1273)
[12] = target: SARS-CoV-2 spike protein P479S (SARS-CoV-2, UniProt P0DTC2 14-1273)
[13] = target: SARS-CoV-2 spike protein Q493K (SARS-CoV-2, UniProt P0DTC2 14-1273)
[14] = target: SARS-CoV-2 spike protein E484K (SARS-CoV-2, UniProt P0DTC2 14-1273)
[15] = target: SARS-CoV-2 spike protein K417E (SARS-CoV-2, UniProt P0DTC2 14-1273)
[16] = target: SARS-CoV-2 spike protein F486V (SARS-CoV-2, UniProt P0DTC2 14-1273)
[17] = target: T1, SARS-CoV-2 spike protein, wild type …; remark: listed apart in the source
[18] = target: T1, SARS-CoV-2 spike protein, wild type …; remark: listed apart in the source

| Binder | protection of Vero E6 cells from SARS-CoV-2 cytopathic effect [1] [nM] | VSV Pseudotype Neutralization Assay IC50 [2] [ng/mL] | VSV Pseudotype Neutralization Assay IC50 [3] [ng/mL] | VSV Pseudotype Neutralization Assay IC50 [4] [ng/mL] | VSV Pseudotype Neutralization Assay IC50 [5] [ng/mL] | VSV Pseudotype Neutralization Assay IC50 [6] [ng/mL] | VSV Pseudotype Neutralization Assay IC50 [7] [ng/mL] | VSV Pseudotype Neutralization Assay IC50 [8] [ng/mL] | VSV Pseudotype Neutralization Assay IC50 [9] [ng/mL] | VSV Pseudotype Neutralization Assay IC50 [10] [ng/mL] | VSV Pseudotype Neutralization Assay IC50 [11] [ng/mL] | VSV Pseudotype Neutralization Assay IC50 [12] [ng/mL] | VSV Pseudotype Neutralization Assay IC50 [13] [ng/mL] | VSV Pseudotype Neutralization Assay IC50 [14] [ng/mL] | VSV Pseudotype Neutralization Assay IC50 [15] [ng/mL] | VSV Pseudotype Neutralization Assay IC50 [16] [ng/mL] | VSV-SARS-CoV-2 IC50 [17] [nM] | IC50, SARS-CoV-2 VSV pseudovirus neutralization (luciferase) [18] [nM] |
| --- | --- | --- | --- | --- | --- | --- | --- | --- | --- | --- | --- | --- | --- | --- | --- | --- | --- | --- |
| B1 | 100 |  |  |  |  |  |  |  |  |  |  |  |  |  |  |  |  |  |
| B2 | 20 | > 100 | 27.8 | 3.3 | 13.3 | 9 | 23 | 21.3 | 12.9 | 8.1 | 16.7 | 27.6 | 45.8 | > 100 | 3.6 | > 100 | < 2 |  |
| B3 | 20 | 76 | 9.1 | 10.9 | 7.2 | 3 | 11.9 | 21.8 | 7.3 | 2.3 | 11.2 | 7.2 | 30 | 64.2 | 1.8 | > 100 | < 2 |  |
| B4 | 2 | 26 | 4.8 | 5.9 | 2.1 | 2 | 6.2 | 8.4 | 5.3 | 1.7 | 3.1 | 2.3 | 28.2 | 10.2 | 1 | > 100 | < 2 |  |
| B5 |  |  |  |  |  |  |  |  |  |  |  |  |  |  |  |  | < 100 |  |
| B6 |  |  |  |  |  |  |  |  |  |  |  |  |  |  |  |  |  | 0.125 |
| B7 |  |  |  |  |  |  |  |  |  |  |  |  |  |  |  |  |  | 0.119 |
| B8 |  |  |  |  |  |  |  |  |  |  |  |  |  |  |  |  |  | 0.264 |
